Tests used:
[1] = target: T1, human IgE (full length human immunoglobulin E) (human, UniProt P01854 1-546); assay: serum free IgE depletion ELISA; DIN 0623 experiment 2, initial free IgE 133 ng/mL
[2] = target: T1, human IgE (full length human …); assay: serum free IgE depletion ELISA; DIN 0632 experiment 1, initial free IgE 532 ng/mL
[3] = target: T1, human IgE (full length human …); assay: serum free IgE depletion ELISA; DIN 0451 experiment 2, initial free IgE 534 ng/mL
[4] = target: T1, human IgE (full length human …); assay: serum free IgE depletion ELISA; DIN 0155, initial free IgE 93 ng/mL
human IgA = target: T2, human IgA (human); assay: ELISA, immunoglobulin coated at 4 µg/mL, anti-human IgG2 detection
T2 construct: bought preparation coated on the ELISA plate
Protocol: (§1) Wells were washed 3× with 150 μL wash buffer (0.05% Tween-20 (Sigma, Cat. No. P7949)/PBS) then blocked with 150 μL/well blocking buffer (2.5% BSA (Sigma, Cat. No. A7030)/PBS) for 2 hours at room temperature. Wells were washed 3× with 150 μL wash buffer/well. […] Antibodies were diluted in diluent buffer (PBS/1% BSA/0.05% Tween-20) and this was added to blank control wells (duplicate wells for each secondary antibody used). Antibodies were incubated for 2 hours at room temperature. Wells were washed 3× with 150 μL wash buffer/well. Binding of control antibodies to immunoglobulin was detected with anti-mouse IgG-HRP conjugate (Sigma, Cat. No. A4416) diluted 1:8000 in diluent buffer. 50 μL/well was added to control antibody and blank wells. Wells were incubated for 1 hour at room temperature, then washed 3× with 150 μL wash buffer/well. 50 μl OPD (Dako, Cat. No. […] Wells were incubated for 1 hour at room temperature then washed 3× with 150 μL wash buffer/well. Streptavidin-HRP (Amersham Bioscience, Cat. No. RPN 1231) diluted 1:2000 in diluent buffer was added to all wells and incubated for 45 minutes at room temperature. Wells were washed (3×150 μL wash buffer).

human IgG3 = target: T3, human IgG3 (human, UniProt P01860-1 1-377); assay: as above
T3 construct: bought preparation coated on the ELISA plate; not shown: bought immunoglobulin, light chain not described
Protocol: as §1

human IgG1 = target: T4, human IgG1 (human, UniProt P01857-1 1-330 = IgG part); assay: as above
T4 construct: bought preparation coated on the ELISA plate; not shown: bought immunoglobulin, light chain not described
Protocol: as §1

[5] = target: T1, human IgE (full length human …); assay: as above
Protocol: as §1

[6] = target: T1, human IgE (full length human …); assay: serum free IgE depletion ELISA; DIN 0591, initial free IgE 152 ng/mL
[7] = target: T1, human IgE (full length human …); assay: serum free IgE depletion ELISA; DIN 0011 experiment 2, initial free IgE 326 ng/mL
[8] = target: T1, human IgE (full length human …); assay: serum free IgE depletion ELISA; DIN 0451 experiment 1, initial free IgE 557 ng/mL
[9] = target: T1, human IgE (full length human …); assay: serum free IgE depletion ELISA; DIN 0623 experiment 1, initial free IgE 145 ng/mL
[10] = target: T1, human IgE (full length human …); assay: serum free IgE depletion ELISA; DIN 0347, initial free IgE 221 ng/mL
[11] = target: T1, human IgE (full length human …); assay: serum free IgE depletion ELISA; DIN 0321 experiment 2, initial free IgE 265 ng/mL
[12] = target: T1, human IgE (full length human …); assay: serum free IgE depletion ELISA; DIN 0284, initial free IgE 339 ng/mL
[13] = target: T1, human IgE (full length human …); assay: serum free IgE depletion ELISA; DIN 0382, initial free IgE 2827 ng/mL
[14] = target: T1, human IgE (full length human …); assay: serum free IgE depletion ELISA; DIN 0321 experiment 1, initial free IgE 262 ng/mL
[15] = target: T1, human IgE (full length human …); assay: serum free IgE depletion ELISA; DIN 0011 experiment 1, initial free IgE 555 ng/mL
[16] = target: T1, human IgE (full length human …); assay: serum free IgE depletion ELISA; DIN 0748, initial free IgE 4609 ng/mL
[17] = target: T1, human IgE (full length human …); assay: serum free IgE depletion ELISA; DIN 0632 experiment 2, initial free IgE 289 ng/mL
[18] = target: T1, human IgE (full length human …); assay: serum free IgE depletion ELISA; DIN 0649, initial free IgE 93 ng/mL

T1 sequence (P01854 whole entry): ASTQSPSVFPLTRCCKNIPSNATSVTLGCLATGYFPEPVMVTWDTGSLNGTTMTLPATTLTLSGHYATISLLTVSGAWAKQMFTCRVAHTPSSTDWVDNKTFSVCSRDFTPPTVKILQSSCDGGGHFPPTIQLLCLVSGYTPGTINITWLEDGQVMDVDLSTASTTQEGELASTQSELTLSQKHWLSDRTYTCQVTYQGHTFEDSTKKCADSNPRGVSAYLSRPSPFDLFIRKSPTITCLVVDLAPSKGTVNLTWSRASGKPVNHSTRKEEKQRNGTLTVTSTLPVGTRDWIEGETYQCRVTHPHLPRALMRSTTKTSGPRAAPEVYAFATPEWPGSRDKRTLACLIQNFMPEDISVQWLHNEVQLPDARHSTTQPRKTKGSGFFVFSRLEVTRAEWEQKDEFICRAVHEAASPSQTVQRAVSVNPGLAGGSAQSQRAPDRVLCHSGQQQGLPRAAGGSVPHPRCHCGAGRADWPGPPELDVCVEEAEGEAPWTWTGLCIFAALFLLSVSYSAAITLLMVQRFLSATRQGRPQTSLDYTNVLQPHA
T4 sequence (P01857 other isoform, or with tags, fused parts or gaps): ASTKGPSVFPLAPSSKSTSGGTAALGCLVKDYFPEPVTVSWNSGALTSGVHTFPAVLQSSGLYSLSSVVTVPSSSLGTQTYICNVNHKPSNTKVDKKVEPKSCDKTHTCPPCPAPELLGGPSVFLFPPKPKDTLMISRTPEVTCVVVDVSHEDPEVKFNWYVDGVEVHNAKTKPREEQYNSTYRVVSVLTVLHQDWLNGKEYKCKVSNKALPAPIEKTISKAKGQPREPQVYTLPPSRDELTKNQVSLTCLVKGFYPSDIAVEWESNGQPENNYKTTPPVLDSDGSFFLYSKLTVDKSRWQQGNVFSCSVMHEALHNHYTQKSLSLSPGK
T3 sequence (P01860 other isoform, or with tags, fused parts or gaps): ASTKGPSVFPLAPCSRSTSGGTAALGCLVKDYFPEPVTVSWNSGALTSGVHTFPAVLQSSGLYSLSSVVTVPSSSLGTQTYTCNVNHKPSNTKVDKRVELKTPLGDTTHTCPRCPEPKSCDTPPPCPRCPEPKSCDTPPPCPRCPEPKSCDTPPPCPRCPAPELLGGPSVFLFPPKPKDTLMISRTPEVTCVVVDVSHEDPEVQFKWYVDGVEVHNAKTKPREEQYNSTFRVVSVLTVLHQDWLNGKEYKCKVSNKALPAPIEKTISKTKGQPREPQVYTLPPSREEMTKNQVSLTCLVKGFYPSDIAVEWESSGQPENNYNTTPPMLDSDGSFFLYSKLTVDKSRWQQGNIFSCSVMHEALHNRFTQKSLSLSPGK

B1: recombinant 5.948.1 (antibody, human IgG2, kappa, V domains shown)
VH: QVQLVQSGAEVKKPGASVKVSCKASGYTFTSYDINWVRQATGQGLEWMGWMDPNSGNTGYAQKFQGRVTMTRNTSISTAYMELSSLRSEDTAVYYCARGHYDSDGYYSFSGMDVWGQGTTVTVSS
VL: not shown
notes: human IgG2 kappa; two batches (762.8 µg/mL and 5.2 mg/mL) were tested; also called 5.948.1 (recombinant); 5.948.1 - Batch 1
IC25ng/mL [1]: 4.13 µg/mL
IC25ng/mL [2]: 8.91 µg/mL
IC25ng/mL [3]: 39.7 µg/mL
IC25ng/mL [4]: 1.81 µg/mL
A290 nm (human IgA): 0.04 absorbance
A290 nm (human IgG3): 0.04 absorbance
A290 nm (human IgG1): 0.07 absorbance
A290 nm [5]: 2.57 absorbance
IC25ng/mL [6]: 2.35 µg/mL
IC25ng/mL [7]: 6.34 µg/mL
IC25ng/mL [8]: 11.6 µg/mL
IC25ng/mL [9]: 0.5 µg/mL
IC25ng/mL [10]: 4.92 µg/mL
IC25ng/mL [11]: 7.9 µg/mL
IC25ng/mL [12]: 2.45 µg/mL
IC25ng/mL [13]: 25 µg/mL
IC25ng/mL [14]: 1.34 µg/mL
IC25ng/mL [15]: 3.3 µg/mL
IC25ng/mL [16]: 25.1 µg/mL
IC25ng/mL [17]: 6.31 µg/mL
IC25ng/mL [18]: 1.95 µg/mL

— patent US20110064726A1 (published 2011)
